Laboratory results from patent US20030096741A1, “Enhanced mineral delivery” (priority 2000, published 2003).
Where two headings read alike, the source gives them in different places. Square brackets hold non-standard residues; d marks the D form. Ends that are not written are not given here. pS = N[C@@H](COP(=O)(O)O)C(=O)O

Tests used:
[1] = test system: bone specific gravity (femurs and tibias); test: Bone specific gravity in growing rats fed a high sucrose diet; assay type: in vivo, Sprague-Dawley rats; conditions: high sucrose diet for 5 weeks, 6.25 or 3.125 mmol/kg of diet, both groups
Text: A high sucrose diet is associated with a decrease in bone specific gravity in growing rats (reflecting reduced calcium and phosphorous content). See J. Nutr. 128:1807-1810 (1998). This decrease in bone density is reversed or prevented by carbamoyl phosphate supplementation. Sprague-Dawley rats were fed a high sucrose diet for 5 weeks, supplemented with carbarnoyl phosphate at either 6.25 or 3.125 mmol/kg of diet. […] Thus, carbamoyl phosphate modifies the effect of a high sucrose diet on bone growth.

[2] = 3P motif versus 2P motif; cited from earlier work
[3] = cited from earlier work
[4] = calcium binding, human β-CN variants by number of phosphorylated Ser residues, calculated from published binding studies, read-out: Average dissociation Constant

Molecule: NC(=O)OP(=O)(O)O [carbamoyl phosphate]
- specific gravities of femurs and tibias versus control rats receiving standard lab chow [1]: not significantly different
- specific gravities of femurs and tibias versus rats on the same diet without carbamoyl phosphate [1]: significantly higher

Molecule: 3P variant: Reynolds (WO 98/40406) 3P variant having the sequence motif SerP-SerP-SerP-Glu-Glu (SEQ ID NO: 1) ([pS][pS][pS]EE)
- calcium and phosphate binding strength relative to 2P synthetic homologues having the motif SerP-SerP-Glu-Glu [2]: 2.5 times

B1: bovine β-CN: Bovine beta-casein (protein, UniProt P02666 16-224, looked up)
Beta-casein: RELEELNVPGEIVESLSSSEESITRINKKIEKFQSEEQQQTEDELQDKIHPFAQTQSLVYPFPGPIPNSLPQNIPPLTQTPVVVPPFLQPEVMGVSKVKEAMAPKHKEMPFPKYPVEPFTESQSLTLTDVENLHLPLPLLQSWMHQPHQPLPPTVMFPPQSVLSLSQSKVLPVPQKAVPYPQRDMPIQAFLLYQEPVLGPVRGPFPIIV
- Kd ([3]; bovine β-CN, read-out: calcium dissociation constant): 650 µM

B2: 4P: Human β-CN variant with four SerP residues, all three Ser in the target sequence phosphorylated (protein, UniProt P05814 16-226, looked up)
Beta-casein: RETIESLSSSEESITEYKQKVEKVKHEDQQQGEDEHQDKIYPSFQPQPLIYPFVEPIPYGFLPQNILPLAQPAVVLPVPQPEIMEVPKAKDTVYTKGRVMPVLKSPTIPFFDPQIPKLTDLENLHLPLPLLQPLMQQVPQPIPQTLALPPQPLWSVPQPKVLPIPQQVVPYPQRAVPVQALLLNQELLLNPTHQIYPVTQPLAPVHNPISV
modifications: four phosphoserines
- Kd [3, 4]: 810 µM

B3: 5P: Human β-CN variant with five phosphorylated Ser residues (protein, UniProt P05814 16-226, looked up)
Beta-casein: B2 Beta-casein
modifications: five phosphoserines
notes: Human β-CN variant with five phosphorylated Ser residues
- Kd [3, 4]: 420 µM

B4: 1P: Human β-CN variant with one phosphorylated Ser residue (protein, UniProt P05814 16-226, looked up)
Beta-casein: B2 Beta-casein
modifications: one phosphoserine
notes: Human β-CN variant with one phosphorylated Ser residue
- Kd [3, 4]: 1170 µM

B5: 2P: Human β-CN variant with two SerP residues, only two of three Ser in the target sequence phosphorylated (protein, UniProt P05814 16-226, looked up)
Beta-casein: B2 Beta-casein
modifications: two phosphoserines
- Kd [3, 4]: 1210 µM

B6: 3P: Human β-CN variant with three phosphorylated Ser residues (protein, UniProt P05814 16-226, looked up)
Beta-casein: B2 Beta-casein
modifications: three phosphoserines
notes: Human β-CN variant with three phosphorylated Ser residues
- Kd [3, 4]: 860 µM
